{"source": "patent US20260132180", "data": [{"substance": "MMP-2 protease", "values": [{"measurement": "Percentage of cleaved protein determined using WB after incubation with activated MMP-2 protease", "setting": "Pro055", "result": "Pro054, Pro055, Pro061, and Pro064 were sensitive to MMP-2 digestion and protease-dependent removal of masking and half-life extension domains"}, {"measurement": "Percentage of cleaved protein determined using WB after incubation with activated MMP-2 protease", "setting": "Pro064", "result": "Pro054, Pro055, Pro061, and Pro064 were sensitive to MMP-2 digestion and protease-dependent removal of masking and half-life extension domains"}, {"measurement": "Percentage of cleaved protein determined using WB after incubation with activated MMP-2 protease", "setting": "Pro054", "result": "Pro054, Pro055, Pro061, and Pro064 were sensitive to MMP-2 digestion and protease-dependent removal of masking and half-life extension domains"}, {"measurement": "Fraction of cleaved Pro101 determined by WB", "setting": "Pro101", "result": "effective linker cleavage in Pro101"}, {"measurement": "Percentage of cleaved protein determined using WB after incubation with activated MMP-2 protease", "setting": "Pro061", "result": "Pro054, Pro055, Pro061, and Pro064 were sensitive to MMP-2 digestion and protease-dependent removal of masking and half-life extension domains"}]}]}
